# Substrate: OC[C@H]1O[C@@H](O[C@H]2C(O)O[C@H](CO)[C@@H](O)[C@@H]2O)[C@H](O)[C@@H](O)[C@@H]1O
# Assay: purified protein, by the assay type
# Settings: other: sophorose substrate; Gawronski phosphate release assay; 37.0 °C
protein,measurement,value
"Rhizobium tropici β-1,2-glucan phosphorylase (RtSOGP, B6), wild type, SEQ ID NO: 11 (Martinezella tropici) (protein) MSSGTNRSFQTPRREELGLITLSNTAGLSASALPNGTLFSIDFADQQGGVMINQVLGSPVYGGIGRLYLRIGGAKPATAEIVGPKAAVQFGHGKSGFSWSGETAGVKHTISLRLHPNKTAWFWQVSLENSSNATLSADLVLVQDVGLGDRGFLMNSEAYASQYIDHHIADHSAFGPVIMVRQNLKQGGGRNPWLAQGCLEGAAAYATDAIQLLVPSKGNDGVMVPDFGTSLPSARRQHEVACPTIQSKPLALAAGAKATTTFFGLFIADHPAASSDADLAHLDGLPALQSELAAETISAGQPVRSLLQDAPLAESDDLDQAALDALYPRRMLEEHADGKLLSFFVPDGPHNRHIVLREKERLVARRHGAIVRSGQNMLLDDQTLAATCWMQGIFAAQLTIGNTSFHKLFSVSRDPYNLTRSSGLRILVDLGDGWRLLGVPAAFEMGLSDTRWIYRLPGRTIIVSAIASGDDPAMQWSVSVEGAACRFLVFGQIVLGERDYEAVANIAVDTAGKRISFQPQPSWLWDRYPKAGYHLVTSTPDAFEAIGGDELLYSDSTARNGPFIALKSHPTKALRFAVTGSMTDAQAAEALAARYTTGVESEEMLAPARRFWSHVTRGARIEGDGRDVAAQAVMLPWIAHDAIVHLSVPHGLEQYTGAAWGTRDVCQGPIEFLLAYEHDEEVRQILLTLFSEQYRDRGDWPQWFMLEPYANIRAGEAHGDIVVWPLKALCDYIEATGDIAFLAKTVPWRADDTMQLTSEHATISDHIEKLLDTVRSRFVPGTSLIRYGEGDWNDSLQPADPHLRDWMVSSWTVSLLYEQLVRYANILTLANRNDEAQSLQATAVAMRADFNRLLMRDGIVAGYGVFDPSHDGVELLLHPEDTRTGLHYSLIAMTQPMIGGLFAPEQRHAHMKIIRANLLFPDGVRLMEKPATYSGGPEKLFRRAESSSFFGREIGLMYVHAHLRYCEALALDDDAEAVWAALALANPIAVSGRVEHASLRQRNTYFSSSDAAFEDRYQASAEWTRVKAGDIAVDGGWRIYSSGPGLYTKSLIGNVFGFKRQFGQRIRKPLLPASIGACEVKLDFKA",Km,70 µM
same,Vmax,24 µmol/min/mg
same,kcat,50 s⁻¹
same,kcat/Km,717000 M⁻¹ s⁻¹

# — patent US20260078420A1
